Measurements: PMC3123277, “Engineering Klebsiella sp. 601 multicopper oxidase enhances the catalytic efficiency towards phenolic substrates” (BMC Biochemistry, 2011)

What was measured:
[1] = biological target: T1, Klebsiella sp. 601 MCO (multicopper oxidase) (Klebsiella sp. 601, UniProt B0FMT2); assay: spectrophotometric oxidation assay, Lineweaver-Burk; format: biochemical; settings: pH 5.0, 50 mM acetate, 37°C, 0.2 mM CuSO4; read-out: Wild-type
T1 sequence (B0FMT2 29-536): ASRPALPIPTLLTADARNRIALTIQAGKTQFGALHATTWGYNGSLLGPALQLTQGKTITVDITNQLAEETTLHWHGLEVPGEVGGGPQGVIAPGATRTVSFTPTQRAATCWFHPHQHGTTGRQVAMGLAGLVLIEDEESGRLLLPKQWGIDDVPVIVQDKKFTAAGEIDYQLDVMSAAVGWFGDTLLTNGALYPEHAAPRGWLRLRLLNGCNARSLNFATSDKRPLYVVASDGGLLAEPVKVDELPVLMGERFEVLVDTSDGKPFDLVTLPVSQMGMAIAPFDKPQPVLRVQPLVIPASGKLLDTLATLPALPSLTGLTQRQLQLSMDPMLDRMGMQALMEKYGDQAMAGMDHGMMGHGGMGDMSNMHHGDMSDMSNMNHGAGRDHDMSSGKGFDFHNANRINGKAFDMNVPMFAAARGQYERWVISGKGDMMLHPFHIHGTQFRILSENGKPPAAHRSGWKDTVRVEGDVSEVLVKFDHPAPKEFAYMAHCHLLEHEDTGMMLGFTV
Description: (§1) spectrophotometric oxidation assay, Lineweaver-Burk on Klebsiella sp. 601 MCO (multicopper oxidase)

[2] = biological target: Klebsiella sp. 601 MCO (multicopper oxidase) (Klebsiella sp. 601, UniProt B0FMT2, E106F); settings: read-out: E106F; pH 5.0, 50 mM acetate, 37°C, 0.2 mM CuSO4
Description: as §1

[3] = biological target: Klebsiella sp. 601 MCO (multicopper oxidase) (Klebsiella sp. 601, UniProt B0FMT2, R361G/M362G/L367G/M368G/E369P/M376K/M379P); settings: read-out: α351-380M; pH 5.0, 50 mM acetate, 37°C, 0.2 mM CuSO4
Description: as §1

[4] = test system: CCn1c(=NN=c2sc3cc(S(=O)(=O)O)ccc3n2CC)sc2cc(S(=O)(=O)O)ccc21; assay: purified protein; settings: pH 3.6, 50 mM acetic acid-sodium acetate, 37°C, 0.2 mM CuSO4
[5] = substrate: COc1cc(C=NN=Cc2cc(OC)c(O)c(OC)c2)cc(OC)c1O; assay: spectrophotometric oxidation assay, Lineweaver-Burk; format: biochemical, Klebsiella sp. 601; settings: pH 6.8, 50 mM phosphate, 37°C, 0.2 mM CuSO4, pH 6.8
Description: as §1

[6] = substrate: CCn1c(=NN=c2sc3cc(S(=O)(=O)O)ccc3n2CC)sc2cc(S(=O)(=O)O)ccc21; assay: as above; format: biochemical, Klebsiella sp. 601; settings: pH 3.0, 50 mM acetic acid-sodium acetate, 37°C, 0.2 mM CuSO4, pH 3.0
Description: as §1

## COc1cccc(OC)c1O [DMP]
[1]
  Km: 2850 µM
[2]
  Km: 1180 µM
[3]
  Km: 639 ± 17 µM

## Klebsiella sp. 601 MCO (multicopper oxidase) (Klebsiella sp. 601; E106F)
[4]
  Km: 159 ± 1.0 µM
  kcat/Km: 2.05e+08 M⁻¹ s⁻¹

## Klebsiella sp. 601 MCO (multicopper oxidase) (Klebsiella sp. 601; E369P/L367G/M362G/M368G/M376K/M379P/R361G)
[4]
  Km: 284 ± 6.2 µM

B1: Klebsiella sp. 601 MCO (multicopper oxidase) (Klebsiella sp. 601) (protein)
chain: T1 sequence (B0FMT2 29-536)
[5]
  Km: 11.67 ± 0.2 µM
  kcat: 10.8 ± 0.1 s⁻¹
  kcat/Km: 930000 M⁻¹ s⁻¹
[6]
  Km: 539 ± 5.0 µM
  kcat/Km: 1.27e+08 M⁻¹ s⁻¹
